Experimental data taken from patent US20110159588A1 (published 2011).

B1: recombinant human PDGF-CC (ligand, UniProt Q9NRA1 235-345, looked up)
chain: VVDLNLLTEEVRLYSCTPRNFSVSIREELKRTDTIFWPGCLLVKRCGGNCACCLHNCNECQCVPSKVTKKYHEVLQLRPKTGVRGLHKSLTDVALEHHEECDCVCRGSTGG
notes: Bought homodimer
B2: recombinant human PDGF-BB (ligand, UniProt P01127 82-190, looked up)
chain: SLGSLTIAEPAMIAECKTRTEVFEISRRLIDRTNANFLVWPPCVEVQRCSGCCNNRNVQCRPTQVQLRPVQVRKIEIVRKKPIFKKATVTLEDHLACKCETVAAARPVT
notes: Bought homodimer
B3: gD-TMEFF2-ΔFS I (gD-tagged TMEFF2 lacking the N-terminal follistatin module FS I) on 293 cells (receptor)
chain: KYALADASLKMADPNRFRGKDLPVLSGRCDICQFGAECDEDAEDVWCVCNIDCSQTNFNPLCASDGKSYDNACQIKEASCQKQEKIEVMSLGRCQDNTTTTTKSEDGHYARTDYAENANKLEESAREHHIPCPEHYNGFCMHGKCEHSINMQEPSCRCDAGYTGQHCEKKDYSVLYVVPGPVRFQYVLIAAVIGTIQIAVICVVVLCITRKCPRSNRIHRQKQNTGHYSSDNTTRASTRLI
notes: Deletion mutant; The true chain lacks the region up to and including FS I
B4: TECD-Fc (extracellular domain of TMEFF2 fused to the Fc portion of human immunoglobulin gamma at the carboxy-terminus) (Fc fusion)
chain: FPTSLSDCQTPTGWNCSGYDDRENDLFLCDTNTCKFDGECLRIGDTVTCVCQFKCNNDYVPVCGSNGESYQNECYLRQAACKQQSEILVVSEGSCATDAGSGSGDGVHEGSGETSQKETSTCDICQFGAECDEDAEDVWCVCNIDCSQTNFNPLCASDGKSYDNACQIKEASCQKQEKIEVMSLGRCQDNTTTTTKSEDGHYARTDYAENANKLEESAREHHIPCPEHYNGFCMHGKCEHSINMQEPSCRCDAGYTGQHCEKK
notes: also called TECD-hFc; Fc-tagged TECD; not shown: subc
B5: TECD-FLAG (extracellular domain of TMEFF2 fused to a FLAG tag at the carboxy-terminus) (other)
chain: FPTSLSDCQTPTGWNCSGYDDRENDLFLCDTNTCKFDGECLRIGDTVTCVCQFKCNNDYVPVCGSNGESYQNECYLRQAACKQQSEILVVSEGSCATDAGSGSGDGVHEGSGETSQKETSTCDICQFGAECDEDAEDVWCVCNIDCSQTNFNPLCASDGKSYDNACQIKEASCQKQEKIEVMSLGRCQDNTTTTTKSEDGHYARTDYAENANKLEESAREHHIPCPEHYNGFCMHGKCEHSINMQEPSCRCDAGYTGQHCEKKWRADYKDDDDK
notes: Expressed in mammalian cells, purified from supernatant; also called FLAG-tagged TECD; TMEFF2-ECD

Columns and labels:
[1] = target: B4; assay: ELISA, PDGF coat, anti-human Fc-HRP detection
Protocol: For the PDGF coat format, plates were coated with 1 μg/ml PDGF-AA, PDGF-AB, PDGF-BB, PDGF-CC, or PDGF-DD. Serially diluted TECD-Fc was added to the plates. Bound TECD-Fc was detected using horseradish peroxidase conjugated goat anti-human Fc (Jackson ImmunoResearch, West Grove, Pa.).
(§1) To confirm that the binding observed is indeed due to the interaction between PDGF-AA and TMEFF2-ECD, we then immobilized the PDGF ligands on the plates, and applied the TMEFF2-ECD fused to a different tag, TECD-Fc, as an analyte.

[2] = target: T1, recombinant human soluble PDGF receptor α extracellular domain (PDGF sRα) (human, UniProt P16234 24-528, biotinylated using biotin-X-NHS in the ELISAs (sRα-bio); sites not stated); assay: ELISA, PDGF coat, sRα-bio, streptavidin-HRP detection (FIG. 9B)
T1 construct: extracellular domain; also called sRα-bio; soluble PDGFRα extracellular domain
Protocol: FIG. 9 TECD-Fc competes with PDGF sRα for PDGF-AA binding. (A) PDGF-AA, but not AB, BB, CC or DD, binds to TECD-Fc. TECD-Fc was applied to wells coated with recombinant human PDGF-AA, AB, BB, CC or DD and detected with HRP-conjugated anti-human Fcγ. (B) sRα binds to all three recombinant human PDGF: AA, AB and BB. Biotinylated recombinant sRα (sRα-bio) was applied to wells coated with recombinant human PDGF-AA, AB, BB, CC or DD and detected with streptavidin-HRP. (C) 10 ng/ml TECD-Fc was mixed with increasing concentrations of sRα-bio and applied to PDGF-AA coated wells. Binding between sRα and PDGF-AA was detected using streptavidin-HRP.
as §1

[3] = target: T2, recombinant human PDGF-AA (human, UniProt P04085 87-211, limits assumed); assay: co-immunoprecipitation with anti-gD mAb from transfected 293 cells, anti-PDGF-A blot
T2 construct: Bought homodimer
Protocol: For binding of PDGF ligands to membrane-bound TMEFF2 proteins, 293 cells were transfected with the various TMEFF2 constructs and changed to fresh growth medium containing 5 μg/ml PDGF-AA or AB 48 hours after transfection. After 1 hour of incubation unbound PDGF ligands were washed away with ice cold PBS and cells were lysed in lysis buffer containing 50 mM Tris pH 8.0, 150 mM NaCl, 1 mM EDTA, 1% NP-40, and protease and phosphatase inhibitors, pre-cleared with protein G SEPHAROSE, and immunoprecipitated with anti-TMEFF2, anti-PDGF, or anti-gD antibodies. The immune complexes were dissociated with SDS sample buffer with (reducing condition) or without (non-reducing condition) β-mercaptoethanol and resolved by 4-20% Tris-Glycine SDS PAGE, transferred to nitrocellulose membranes, and detected with the indicated antibodies using enhanced chemiluminescence.
TMEFF2 contains 2 FS modules and an EGF-like domain. To dissect which domain(s) of TMEFF2 is/are involved in its interaction with PDGF-AA, Herpes simplex type 1 glycoprotein D (gD)-epitope tagged deletion mutants of TMEFF2 were made and examined for their ability to bind PDGF-AA when expressed on the surface of 293 cells (FIG. 4). As expected, PDGF-AA co-immunoprecipitated with gD-tagged full-length TMEFF2 by an anti gD monoclonal antibody. […]

[4] = target: B5; assay: ELISA, TECD-FLAG coat, anti-human Fc-HRP detection
Protocol: (§2) For the TMEFF2 coat format, MaxiSorp 96-well microwell plates (Thermo Scientific Nunc, Roskilde, Denmark) were coated with 1 μg/ml TECD-FLAG in 50 mM carbonate buffer, pH 9.6, overnight at 4° C. Plates were washed with PBS, pH 7.4 containing 0.05% polysorbate 20 and blocked with 0.5% bovine serum albumin (BSA), 15 parts per million Proclin 300 in phosphate buffered saline (PBS), pH 7.4 for 1 hour at room temperature. Serially diluted PDGF-AA, PDGF-AB or PDGF-BB in PBS containing 0.5% BSA, 0.05% polysorbate 20, and 15 parts per million Proclin 300 were added to the plates. After a 2-hour incubation, PDGF bound to the plates was detected by incubating biotinylated goat anti-human PDGF-AA or PDGF-AB or PDGF-BB in the wells for 1 hour, followed by horseradish peroxidase conjugated streptavidin (GE Healthcare, Piscataway, N.J.) for 30 min. Bound Fc-fusion protein was detected by adding goat anti-hman Fc-HRP (Jackson ImmunoResearch, West Grove, Pa.). After a final wash, the substrate 3,3′,5,5′-tetramethyl benzidine (Kirkegaard & Perry Laboratories) was added to plates and the reaction was stopped by adding 1 M phosphoric acid. Plates were washed with PBS, pH 7.4, containing 0.05% Tween 20, between steps and all incubation steps were performed at room temperature on an orbital shaker. Absorbance was read at 450 nm on a multiskan Ascent reader (Thermo Scientific, Hudson, N.H.). The titration curves were fitted using a four-parameter nonlinear regression curve-fitting program (KaleidaGraph, Synergy software, Reading, Pa.).
(§3) For testing binding of Fc-fusion proteins or his-tagged proteins to TECD-Flag coated on the plate, horseradish peroxidase conjugated goat anti-human Fc (Jackson ImmunoResearch, West Grove, Pa.) or biotinylated anti-His (Penta-His, Qiagen, Valencia, Calif.) followed by horseradish peroxidase conjugated streptavidin was used for detection. For testing TECD-Flag coat, serially diluted mouse anti-Flag (Sigma, St. Louis, Mo.) was added to the plates followed by horseradish peroxidase conjugated goat anti-mouse Fc (Jackson ImmunoResearch). Serially diluted PDGF-AA was also added to wells coated with goat anti-PDGF for comparison to wells coated with 1 μg/ml TECD-Flag. Bound PDGF-AA was detected as described above.

[5] = target: T3, HER2 (human EGF-like receptor 2) ECD fused to hFcγ (human, UniProt P04626 23-652); assay: ELISA, TECD-FLAG coat, anti-human Fc-HRP detection
T3 construct: extracellular domain; not shown: human Fc gamma
Protocol: as §2, §3

[6] = target: T4, EGFR (human epithelial growth factor receptor) ECD fused to hFcγ (human, UniProt P00533 25-645); assay: ELISA, TECD-FLAG coat, anti-human Fc-HRP detection
T4 construct: extracellular domain; not shown: human Fc gamma
Protocol: as §2, §3

[7] = target: T5, HER4 (human EGF-like receptor 4) ECD fused to hFcγ (human, UniProt Q15303 26-651); assay: ELISA, TECD-FLAG coat, anti-human Fc-HRP detection
T5 construct: extracellular domain; not shown: human Fc gamma
T5 sequence (looked up): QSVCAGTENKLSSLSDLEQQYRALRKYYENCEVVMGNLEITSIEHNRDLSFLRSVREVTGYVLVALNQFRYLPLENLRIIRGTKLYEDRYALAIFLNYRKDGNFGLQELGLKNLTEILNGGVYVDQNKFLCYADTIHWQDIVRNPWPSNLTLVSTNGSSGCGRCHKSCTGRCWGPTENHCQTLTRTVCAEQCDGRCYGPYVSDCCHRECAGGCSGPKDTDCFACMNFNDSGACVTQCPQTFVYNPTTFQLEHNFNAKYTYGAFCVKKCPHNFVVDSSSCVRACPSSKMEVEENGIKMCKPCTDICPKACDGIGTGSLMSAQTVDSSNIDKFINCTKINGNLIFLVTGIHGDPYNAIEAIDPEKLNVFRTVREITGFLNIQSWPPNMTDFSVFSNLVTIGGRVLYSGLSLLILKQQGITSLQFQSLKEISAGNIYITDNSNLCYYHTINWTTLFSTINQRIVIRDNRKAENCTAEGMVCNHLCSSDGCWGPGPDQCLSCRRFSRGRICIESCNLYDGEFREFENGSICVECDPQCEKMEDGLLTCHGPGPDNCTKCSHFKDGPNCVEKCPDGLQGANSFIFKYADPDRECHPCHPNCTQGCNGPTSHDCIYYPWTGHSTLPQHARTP
Protocol: as §2, §3

[8] = target: T6, HER3 (human EGF-like receptor 3) ECD fused to hFcγ (human, UniProt P21860 20-643); assay: ELISA, TECD-FLAG coat, anti-human Fc-HRP detection
T6 construct: extracellular domain; not shown: human Fc gamma
Protocol: as §2, §3

T6 sequence (P21860 20-643): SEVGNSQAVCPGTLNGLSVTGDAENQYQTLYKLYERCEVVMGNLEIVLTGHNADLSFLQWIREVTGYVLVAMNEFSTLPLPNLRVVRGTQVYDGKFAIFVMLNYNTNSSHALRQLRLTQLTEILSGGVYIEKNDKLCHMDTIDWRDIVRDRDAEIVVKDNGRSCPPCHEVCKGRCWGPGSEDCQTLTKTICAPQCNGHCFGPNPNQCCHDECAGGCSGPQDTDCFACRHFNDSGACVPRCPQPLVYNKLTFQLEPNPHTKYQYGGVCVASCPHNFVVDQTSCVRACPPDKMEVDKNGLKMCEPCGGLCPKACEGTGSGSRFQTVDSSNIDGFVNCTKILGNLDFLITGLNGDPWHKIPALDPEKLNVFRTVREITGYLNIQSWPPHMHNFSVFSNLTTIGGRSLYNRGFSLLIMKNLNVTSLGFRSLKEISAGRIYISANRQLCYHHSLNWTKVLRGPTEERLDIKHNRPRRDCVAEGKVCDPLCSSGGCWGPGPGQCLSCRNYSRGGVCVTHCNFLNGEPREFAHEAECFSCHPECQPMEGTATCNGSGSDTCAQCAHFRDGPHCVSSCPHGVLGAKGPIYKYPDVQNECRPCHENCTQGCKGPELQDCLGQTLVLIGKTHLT
T1 sequence (P16234 24-528): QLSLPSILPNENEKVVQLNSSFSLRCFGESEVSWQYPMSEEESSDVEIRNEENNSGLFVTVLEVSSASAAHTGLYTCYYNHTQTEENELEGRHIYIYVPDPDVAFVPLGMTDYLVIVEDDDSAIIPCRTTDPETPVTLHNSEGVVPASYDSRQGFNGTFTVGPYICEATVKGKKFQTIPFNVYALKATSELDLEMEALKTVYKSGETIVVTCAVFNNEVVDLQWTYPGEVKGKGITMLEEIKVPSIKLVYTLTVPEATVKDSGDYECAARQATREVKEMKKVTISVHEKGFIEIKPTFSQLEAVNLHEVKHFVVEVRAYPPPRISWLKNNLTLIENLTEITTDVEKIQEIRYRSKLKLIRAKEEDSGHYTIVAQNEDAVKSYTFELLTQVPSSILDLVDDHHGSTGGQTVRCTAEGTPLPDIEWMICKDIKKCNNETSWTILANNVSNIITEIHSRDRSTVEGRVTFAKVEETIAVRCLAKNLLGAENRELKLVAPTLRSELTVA

Binder: B1
- binding result [1]: no binding

Binder: B2
- binding result [2]: binds
- binding result [1]: no binding

Binder: B3
- binding result [3]: no binding (tested: 5 µg/ml)

Binder: B4
- binding result [4]: no binding

Binder: B5
- binding result [5]: no binding
- binding result [6]: no binding
- binding result [7]: no binding
- binding result [8]: no binding
